Assay results reported in PMC11871449.

Molecular target: TDP-43 RRMs (RRM1-RRM2) (UniProt Q13148)
Test: EMSA (multiplexed)
Details: 20 mM Tris-HCl pH 7.5, 150 mM KCl, 5 mM MgCl2, 10% glycerol, 30 min, room temperature, 2 nM each labeled RNA (mEMSA), 5.5% TBE gel (4% for competition)
[1] = 5 mM Mg2+, fluorophore-UTP incorporated during transcription
[2] = 5 mM Mg2+, fluorophore-UTP incorporated during transcription (labeled form)

Chain of UniProt Q13148 (Q13148 101-269): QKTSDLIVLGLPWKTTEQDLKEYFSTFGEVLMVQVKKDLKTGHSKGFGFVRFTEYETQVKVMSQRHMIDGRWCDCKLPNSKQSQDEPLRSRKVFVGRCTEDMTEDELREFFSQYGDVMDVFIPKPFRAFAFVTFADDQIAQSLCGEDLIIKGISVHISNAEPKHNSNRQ

Row | Sequence | Kd [1] [nM] | Kd [2] [nM] | other results
1 | GUGGGCUUUUCCAUUGUCCCCCUGGCCUCCAGGCUCCUCCUCUGCCUCUCCAUGGAGUGGGUGGGGAGGUGGUGGGGGCCGGCGUCCCCUGCGUGUGUGUGUGUGUGUGUGUGUGUGUGUGGAUGUAUUGACCUGUGUUUCCCAAGACAGCAGGUGCCACGGCCCGCCCCGCCUGCCAGCCCGAAUUCCCGUUCUCCUGUGUCUACUAACAAGGACGGAUCCAGCU [CSNK1E[2054-2264] 3'UTR] | 101 | – | –
2 | GCGAGGAGCCUUUCAUCCGAAGGCGGGACGAUGCCGGAUAAUCGGCAGCCGAGGAACCGGCAGCCGAGGAUCCGCUCCGGGAACGAGCCUCGUUCCGCGCCCGCCAUGGAACCGGAUGGUCGCGGUGCCUGGGCCCACAGUCGCGCCGCGCUCGACCGCCUGGAGAAGCUGCUGCGCUGCUCGCGUUGUACUAACAUUCUGAGAGAGCC [BARD1[86-310] negative control] | – | 1790 | –
3 | AUCCCGCUGCUAUUAGAAUGCAUUGUGAAACGACUGGAGUAUGAUUAAAAGUUGUGUUCCCCAAUGCUUGGAGUAGUGAUUGUUGAAGGAAAAAAUCCAGCUGAGUGAUAAAGGCUGAGUGUUGAGGAAAUUUCUGCAGUUUUAAGCAGUCGUAUUUGUGAUUGAAGCUGAGUACAUUUUGCUGGUGUAUUUUUAGGUAAAAUGCUUUUUGUUCAUUUCUGGUGGUGGGAGGGGACUGAAGCCUUUAGUCUUUUCCAGAUGCAACCUUAAAAUCAGUGACAAGAAACAUUCCAAACAAGC [MALAT1[6638-6938]] | – | – | Kd (fluorophore-UTP incorporated during transcription): 127 nM
4 | UGGCUAUCCUUUAAUGAUGCGUGUGGAAUGUGUGUGUGUGCUCAGGCAAUUAUUUUGCUAAGAAUGUGAAUUCAAGUGCAGCUCAAUACUAGCUUCAGUAUAAAAACUGUACAGAUUUUUGUAUAGCUGAUAAGAUUCUCUGUAGAGAAAAUACUUUUAAAAAAUGCAGGUUGUAGCUUUUUGAUGGGCUACUCAUACAGUUAGAUUUUACAGCUUCUGAUGUUGAAUGUUCCUAAAUAUUUAAUGGUUUUUUUAAUUUCUUGUGUAUGGUAGCACAGCAAAGCUU [HMGB2[739-1022] 3'UTR] | 148 | – | –
5 | AACACCAUGCUGGUUAUUUUGGCGGCUGUAGUUGUGGGGGGAUGUGUGUGUGCACGUGUGUGUGUGUGUGUGUGUGUGUGUGUGUGUGUGUGUUCUGUGACCUCCUGUCCCCAUGGUACGUCCCACCCUGUCCCCAGAUCCCCUAUUCCCUCCACAAUAACAGAAACACUCCCAGGGACUCUGGGGAGAGGCUGAGGACAAAUACCUGCUGUCACUCCAGAGGACAUUUUUUUUAGCAAUAAAAUUGAG [SLC1A5[2620-2869] 3'UTR] | 82 | – | –
6 | GAUUGAUGGUGGUGCCGAGGCAUGAAAGGCUAGUAUGAGCGAGAAAAGGAGAGAGCGCGUGCAGAGACUUGGUGGUGCAUAAUGGAUAUUUUUUAACUUGGCGAGAUGUGUCUCUCAAUCCUGUGGCUUUGGUGAGAGAGUGUGCG [TARDBP[2140-2283] 3'UTR] | – | 272 | –
